We go through five molecules from US20240417477A1 (B G NEGEV TECHNOLOGIES AND APPLICATIONS LTD AT BEN GURION …, published 2024).

The EC50 (read off the curve) is the midpoint of the concentration-response curve. By Kd is commonly meant the free concentration of one partner at which half of the binding sites on the other are occupied at equilibrium, for simple one-to-one binding. A word on the koff: it is a measure of how fast the partners let go of each other. For orientation: kon means the rate constant with which the complex forms.

Experiment [1] concerns the target T1, human Axl recombinant protein (ACROBiosystems) (human, UniProt P30530 26-449, limits assumed).
T1 construct: Coated on ELISA plates; analyte in SPR; also called recombinant AXL; human AXL protein
As to the kind of experiment: ELISA: recombinant human AXL on the plate, purified antibody 0 to 50 nM, anti-human-Fc-HRP. As for the experimental part:
(§1) The plates were then blocked, and incubated with serial dilutions of the antibodies. Next, anti-human-FC-HRP (Jackson laboratories) was added to the plates and a reaction was developed with TMB substrates. Once color developed H2SO4 was used to end the reaction. Plates were washed with PBST (PBS containing 0.05% Tween-20) between the steps. Each of the mentioned steps was carried out for 1 hour at room temperature. The plates were then read on a spectrophotometer at 450 nm.
(§2) All four constructs were purified using Ni-NTA resins and diluted to different concentrations prior to ELISA binding analysis. […] To further determine the dissociation constant (KD value) of the mono specific and bi-specific antibodies to their respective targets, the surface plasmon resonance (SPR) method was utilized (using Biorad ProteOn XPR36). The different antibodies were immobilized in independent channels on a SPR sensor prism (ProteOn XPR36 compatible chip), as ligands. […] Based on the association and dissociation interaction between each of the recombinant proteins and the respective antibodies, respective KD values were calculated.
A general note: ELISA stands for enzyme-linked immunosorbent assay.

The target of experiment [2] is T2, human PD-1 recombinant protein (ACROBiosystems) (human, UniProt Q15116 25-167, biotinylated (in the ELISA, captured on streptavidin)).
T2 construct: Analyte in SPR; also called recombinant PD-1; human PD-1 protein
As to the kind of experiment: ELISA: biotinylated human PD-1 on streptavidin plate, dilutions of secreted construct, anti-human-Fc-HRP. As for the experimental part: as §1

In experiment [3] the target is T1, human Axl recombinant protein …. As to the kind of experiment: SPR (Biorad ProteOn XPR36), antibody immobilised, recombinant AXL as analyte 3.125-50 nM.
From the text: as §2

Experiment [4] has as its target T2, human PD-1 recombinant protein …. As to the kind of experiment: ELISA: biotinylated recombinant human PD-1 on streptavidin plate, purified antibody 0 to 10 nM, anti-human-Fc-HRP. How it is done: as §1, §2
The target in experiment [5] is T3, human PD-1 receptor overexpressed on Bw-PD-1 reporter cells (fusion of PD-1 with a zeta chain) (human, UniProt Q15116 25-288). As to the kind of experiment: cell-based or functional assay.
The target in experiment [6] is T4, AXL expressed on HNSCC tumor cells (SCC47, SNU1076, FaDu) (human, UniProt P30530 26-894). As to the kind of experiment: cell-based or functional assay.
The target in experiment [7] is T3, human PD-1 receptor overexpressed on …. As to the kind of experiment: cell-based or functional assay. This is another data set of the same source.
The target of experiment [8] is T4, AXL expressed on HNSCC tumor cells …. As to the kind of experiment: cell-based or functional assay. This is another data set of the same source.
The target in experiment [9] is T2, human PD-1 recombinant protein …. As to the kind of experiment: SPR (Biorad ProteOn XPR36), antibody immobilised, recombinant PD-1 as analyte 3.125-50 nM.
From the text: as §2

For experiment [10], the target named is T1, human Axl recombinant protein …. As to the kind of experiment: ELISA: human AXL recombinant protein on the plate, dilutions of secreted construct, anti-human-Fc-HRP. How it is done: as §1

T2 sequence (Q15116 25-167 limits assumed): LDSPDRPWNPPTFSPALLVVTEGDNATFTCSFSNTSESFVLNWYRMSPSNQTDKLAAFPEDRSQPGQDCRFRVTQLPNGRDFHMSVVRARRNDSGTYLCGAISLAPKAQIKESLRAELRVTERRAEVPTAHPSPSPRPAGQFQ
T3 sequence (Q15116 25-288): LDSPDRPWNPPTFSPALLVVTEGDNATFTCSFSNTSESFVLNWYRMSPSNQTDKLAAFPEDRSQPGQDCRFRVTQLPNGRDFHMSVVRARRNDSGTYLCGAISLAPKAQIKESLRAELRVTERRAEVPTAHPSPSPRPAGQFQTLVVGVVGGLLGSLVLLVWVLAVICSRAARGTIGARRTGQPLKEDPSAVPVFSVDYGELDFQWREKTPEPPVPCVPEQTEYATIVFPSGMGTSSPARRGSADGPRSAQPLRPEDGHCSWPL

B1: Bi-1 bi-specific construct PD1-AXL-Fc (anti PD1 scFv-anti AXL scFv-Fc) (bispecific antibody)
chain: EIVLTQSPATLSLSPGERATLSCRASQSVSSYLAWYQQKPGQAPRLLIYDASNRATGIPARFSGSGSGTDFTLTISSLEPEDFAVYYCQQSSNWPRTFGQGTKVEIKGGGGSGGGGSGGGGSGGGGSQVQLVESGGGVVQPGRSLRLDCKASGITFSNSGMHWVRQAPGKGLEWVAVIWYDGSKRYYADSVKGRFTISRDNSKNTLFLQMNSLRAEDTAVYYCATNDDYWGQGTLVTVSSGGGGSGGGGSGGGGSGGGGSDIQMTQSPSSLSASVGDRVTITCRASQDVSTAVAWYQQKPGKAPKLLIYSASFLYSGVPSRFSGSGSGTDFTLTISSLQPEDFATYYCQQSYTTPPTFGQGTKVEIKGGGGSGGGGSGGGGSGGGGSEVQLVESGGGLVQPGGSLRLSCAASGFSLSGSWIHWVRQAPGKGLEWVGWINPYRGYAYYADSVKGRFTISADTSKNTAYLQMNSLRAEDTAVYYCAREYSGWGGSSVGYAMDYWGQGTLVGGGGSGGGGSGGGGSGGGGSRSVECPPCPAPPVAGPSVFLFPPKPKDTLMISRTPEVTCVVVDVSHEDPEVKFNWYVDGVEVHNAKTKPREEQYNSTYRVVSVLTVLHQDWLNGKEYKCKVSNKGLPSSIEKTISKAKGQPREPQVYTLPPSREEMTKNQVSLTCLVKGFYPSDIAVEWESNGQPENNYKTTPPVLDSDGSFFLYSKLTVDKSRWQQGNVFSCSVMHEGLHNHYTQKSLSLSPGKHHHHHH
notes: Tandem anti-PD-1 scFv (Nivolumab-derived) and anti-AXL scFv (YW327.6S2-derived), engineered human IgG1 Fc (pFUSE-hIgG1e3-Fc2), C-terminal His tag; also called BsAbI-AXL/PD-1; BsAb-AXL/PD1
For B1, the “EC50 (read off the curve)” value in experiment [1] is around 0.005 µM. Moreover, the binding result in experiment [2] is “binds”.

B2: mono-specific anti-AXL scFv-Fc AXL2 (from YW327.6S2) (Fc fusion)
chain: DIQMTQSPSSLSASVGDRVTITCRASQDVSTAVAWYQQKPGKAPKLLIYSASFLYSGVPSRFSGSGSGTDFTLTISSLQPEDFATYYCQQSYTTPPTFGQGTKVEIKGGGGSGGGGSGGGGSGGGGSEVQLVESGGGLVQPGGSLRLSCAASGFSLSGSWIHWVRQAPGKGLEWVGWINPYRGYAYYADSVKGRFTISADTSKNTAYLQMNSLRAEDTAVYYCAREYSGWGGSSVGYAMDYWGQGTLVGGGGSGGGGSGGGGSGGGGS
notes: also called mono-AXL; AXL2 scFv-Fc; not shown: engineered human IgG1 Fc (hinge, CH2, CH3) of plasmid pFUSE-hIgG1e3-Fc2; C-terminal His tag
On to B2, for which, in experiment [3], the Kd is 0.0209 µM, the koff was found to be 0.00102 s⁻¹ and the kon came out at 49000 M⁻¹ s⁻¹. Moreover, in experiment [4], the binding result is “no binding (tested: 10 nM)”.

B3: Bi-3 bi-specific construct PD1-Fc-AXL (anti PD1 scFv-Fc-anti AXL scFv) (bispecific antibody)
chain: EIVLTQSPATLSLSPGERATLSCRASQSVSSYLAWYQQKPGQAPRLLIYDASNRATGIPARFSGSGSGTDFTLTISSLEPEDFAVYYCQQSSNWPRTFGQGTKVEIKGGGGSGGGGSGGGGSGGGGSQVQLVESGGGVVQPGRSLRLDCKASGITFSNSGMHWVRQAPGKGLEWVAVIWYDGSKRYYADSVKGRFTISRDNSKNTLFLQMNSLRAEDTAVYYCATNDDYWGQGTLVTVSSGGGGSGGGGSGGGGSGGGGSRSVECPPCPAPPVAGPSVFLFPPKPKDTLMISRTPEVTCVVVDVSHEDPEVKFNWYVDGVEVHNAKTKPREEQYNSTYRVVSVLTVLHQDWLNGKEYKCKVSNKGLPSSIEKTISKAKGQPREPQVYTLPPSREEMTKNQVSLTCLVKGFYPSDIAVEWESNGQPENNYKTTPPVLDSDGSFFLYSKLTVDKSRWQQGNVFSCSVMHEGLHNHYTQKSLSLSPGKGGGGSGGGGSGGGGSGGGGSDIQMTQSPSSLSASVGDRVTITCRASQDVSTAVAWYQQKPGKAPKLLIYSASFLYSGVPSRFSGSGSGTDFTLTISSLQPEDFATYYCQQSYTTPPTFGQGTKVEIKGGGGSGGGGSGGGGSGGGGSEVQLVESGGGLVQPGGSLRLSCAASGFSLSGSWIHWVRQAPGKGLEWVGWINPYRGYAYYADSVKGRFTISADTSKNTAYLQMNSLRAEDTAVYYCAREYSGWGGSSVGYAMDYWGQGTLVHHHHHH
notes: Anti-PD-1 scFv at the N-terminus and anti-AXL scFv at the C-terminus of an engineered human IgG1 Fc, C-terminal His tag; also called BsAbI-AXL/PD-1; BsAb-AXL/PD1 (Bi-3)
On to B3, for which the “FaDu GFP / Bw-PD-1 mCherry cell doublets by flow cytometry, against the combination of mono Abs and no treatment” value in experiment [5] and in [6] was 2.5 fold in each case. Besides, the “%Gated 'Doublets & Focused' (image stream, Area BF against Aspect Ratio BF), FaDu-plx GFP cells mixed with DiD-stained Bw-PD-1 cells; same figure: No treatment 690 / 7.6, Combo 442 / 4.9” value in [7] and in experiment [8] was 17.8 %Gated throughout. The values for the Kd in experiment [3] and in experiment [9] were 0.06 µM and 0.00582 µM, respectively. Also, the figures for the koff in [3] and in [9] were 0.00247 s⁻¹ and 0.000743 s⁻¹, respectively. For the same molecule, the kon was found to be 41100 M⁻¹ s⁻¹ in [3] and 128000 M⁻¹ s⁻¹ in [9].

B4: mono-specific anti-PD-1 scFv-Fc PD-1-2 (from Nivolumab) (Fc fusion)
chain: EIVLTQSPATLSLSPGERATLSCRASQSVSSYLAWYQQKPGQAPRLLIYDASNRATGIPARFSGSGSGTDFTLTISSLEPEDFAVYYCQQSSNWPRTFGQGTKVEIKGGGGSGGGGSGGGGSGGGGSQVQLVESGGGVVQPGRSLRLDCKASGITFSNSGMHWVRQAPGKGLEWVAVIWYDGSKRYYADSVKGRFTISRDNSKNTLFLQMNSLRAEDTAVYYCATNDDYWGQGTLVTVSSGGGGSGGGGSGGGGSGGGGS
notes: the tie is by this chain of statements; also called mono-PD-1; mono PD-1; not shown: engineered human IgG1 Fc (hinge, CH2, CH3) of plasmid pFUSE-hIgG1e3-Fc2; C-terminal His tag
Regarding B4, the binding result in experiment [1] is “no binding (tested: 50 nM)”.

B5: Bi-2 bi-specific construct AXL-PD1-Fc (anti-AXL scFv-anti PD1 scFv-Fc) (bispecific antibody)
chain: DIQMTQSPSSLSASVGDRVTITCRASQDVSTAVAWYQQKPGKAPKLLIYSASFLYSGVPSRFSGSGSGTDFTLTISSLQPEDFATYYCQQSYTTPPTFGQGTKVEIKGGGGSGGGGSGGGGSGGGGSEVQLVESGGGLVQPGGSLRLSCAASGFSLSGSWIHWVRQAPGKGLEWVGWINPYRGYAYYADSVKGRFTISADTSKNTAYLQMNSLRAEDTAVYYCAREYSGWGGSSVGYAMDYWGQGTLVGGGGSGGGGSGGGGSGGGGSEIVLTQSPATLSLSPGERATLSCRASQSVSSYLAWYQQKPGQAPRLLIYDASNRATGIPARFSGSGSGTDFTLTISSLEPEDFAVYYCQQSSNWPRTFGQGTKVEIKGGGGSGGGGSGGGGSGGGGSQVQLVESGGGVVQPGRSLRLDCKASGITFSNSGMHWVRQAPGKGLEWVAVIWYDGSKRYYADSVKGRFTISRDNSKNTLFLQMNSLRAEDTAVYYCATNDDYWGQGTLVTVSSGGGGSGGGGSGGGGSGGGGSRSVECPPCPAPPVAGPSVFLFPPKPKDTLMISRTPEVTCVVVDVSHEDPEVKFNWYVDGVEVHNAKTKPREEQYNSTYRVVSVLTVLHQDWLNGKEYKCKVSNKGLPSSIEKTISKAKGQPREPQVYTLPPSREEMTKNQVSLTCLVKGFYPSDIAVEWESNGQPENNYKTTPPVLDSDGSFFLYSKLTVDKSRWQQGNVFSCSVMHEGLHNHYTQKSLSLSPGKHHHHHH
notes: Tandem anti-AXL scFv and anti-PD-1 scFv, engineered human IgG1 Fc, C-terminal His tag; also called BsAbI-AXL/PD-1
In the case of B5, the binding result in experiment [10] and in experiment [2] was “binds” in each case.
